According to paper PMC11143224, “Flavivirus Zika NS4A protein forms large oligomers in liposomes and in mild detergent” (Scientific Reports, 2024):

How the values were obtained:
[1] = target: the molecule itself; experiment: AUC; sedimentation velocity, most diluted samples (detergent-to-protein ratio 640 and 320); 1 mM C14-betaine, 50 mM Tris-HCl pH 7.3, 100 mM NaCl, 2 mM TCEP, 33.4% D2O, 50,000 rpm, 25 °C, absorbance at 230 nm
[2] = target: the molecule itself; experiment: cross-linking; purified NS4A (12 uM) in POPC/POPS (4:1) liposomes, lipid-to-protein ratios 40, 100 and 250; DSS 0.03-1.0 mM, or DSG, BS3, DSS, EGS, DSP at 0.25 mM, 15 min; SDS-PAGE and anti-His-tag Western blot
[3] = target: the molecule itself; experiment: AUC; sedimentation equilibrium, multi-speed (15,000-33,000 rpm), 1 mM C14-betaine, 50 mM Tris-HCl pH 7.3, 100 mM NaCl, 2 mM TCEP, 33.4% D2O, absorbance at 280 nm; fitted in SEDPHAT; constant is of dimers to hexamer

B1: full-length Zika NS4A protein (strain MR-766) (natural protein)
chain: GAALGVMEALGTLPGHMTERFQEAIDNLAVLMRAETGSRPYKAAAAQLPETLETIMLLGLLGTVSLGIFFVLMRNKGIGKMGFGMVTLGASAWLMWLSEIEPARIACVLIVVFLLLVVLIPEPEKQR
notes: NS4A of Zika virus strain MR-766, the cut product of the polyprotein (mature NS4A without 2K), 127 residues (1-127); also called ZIKV NS4A; NS4A-FL; not shown: His-tag, N-terminal, kept
In the case of B1, the “stoichiometry N” value [1] is reported as 2, the “stoichiometry N” value [2] is reported as no less than 6 and the “stoichiometry N” value [3] is reported as 6.
